Consider 54 variants from the RNAGym collection of RNA variant scans (doi:10.7554/elife.80360).

Sequences and labels used below:
B1: Twister Ribozyme (parent)
chain: AACACUGCCAAUGCCGGUCCCAAGCCCGGAUAAAAGUGGAGGGGGCGG

The data set covers variants of B1. Put plainly: self-cleavage, relative activity (ratio to wild type); higher = more cleavage; co-transcriptional.
As to AACACUGCCAAUGACGGUCCCAAGCCCGGAUAAAAGUGGAGGGGGCGU [C14A G48U], the self-cleavage was 0.887.

On to AACACUGCCAAUGACGGUCCCAAGCCCGGAUAAAAGUGGAGGGGGCGA [C14A G48A], for which the self-cleavage was 0.868.

Regarding AACACUGCCACUGCCGGUCCCAAGCCCGGAUAAAAGCGGAGGGGGCGG [A11C U37C], the self-cleavage came out at 0.808.

As for AACACUGCCAAUGCCGAUCCCAAGCCCGGAUAAAAGUGCAGGGGGCGG [G17A G39C], the self-cleavage was determined as 0.105.

AACAUUGCCAAUGCCGGUCCCUAGCCCGGAUAAAAGUGGAGGGGGCGG [C5U A22U]: the self-cleavage worked out at 0.526.

As to AACACUGCCAAUGCCGGUCCCAAGCCCGGAUAAAAGUGGAGGGGUCCG [G45U G47C], the self-cleavage came to 0.435.

On to AACACUGCCAACGGCGGUCCCAAGCCCGGAUAAAAGUGGAGGGGGCGG [U12C C14G], for which the self-cleavage was found to be 0.0887.

Take AACGCUGCCAAUGCCGGUCCCAAGCCCGGAUAAAAGUGCAGGGGGCGG [A4G G39C]: the self-cleavage was 0.115.

For the variant AACACUGCCAAUGCGGGUCCCAAGCCCGGAUAAAAGUGCAGGGGGCGG [C15G G39C], the self-cleavage was 0.104.

Regarding AACACUGCCAAUGCCGGGCCCAAGCCCGGAUAAAAUUGGAGGGGGCGG [U18G G36U], the self-cleavage was 0.083.

For AACACUGCCAUUGCCGGUCCCAAGCCCGGAUAAAAGUGGAGGAGGCGG [A11U G43A], the self-cleavage was 0.336.

On to AACACUGCCAGUGCCGGUCCCAAGCCCGGAUAAAAGUGGUGGGGGCGG [A11G A40U], for which the self-cleavage is 0.126.

Consider AACACUGCCAAUGCCGGUCCCAUGCCCGGAUAAAAGUGGAUGGGGCGG [A23U G41U], for which the self-cleavage is 0.137.

In the case of AACACUCCCAAUGCCGGUCCCAAGCCCGGAUAAUAGUGGAGGGGGCGG [G7C A34U], the self-cleavage came to 0.067.

With AACACAGCCAAUGCCGGUCCCAAGCCCGGAUAAAAGUGGAGGGGGCGU [U6A G48U], the self-cleavage was 0.782.

As to AAUACUGCCAAUGCUGGUCCCAAGCCCGGAUAAAAGUGGAGGGGGCGG [C3U C15U], the self-cleavage is 0.335.

AACACUGCCAAUGCCGGUCCGAAGCCCGGAUAACAGUGGAGGGGGCGG [C21G A34C]: the self-cleavage is 0.0532.

For the variant AACACUGCCAAUGCCGGGCCCAAGCCCGGAUAAAAGUGGAGGGAGCGG [U18G G44A], the self-cleavage turned out to be 0.0959.

As for AACACUGCCAAUGCCGGUCCCCAGCCCGGAUAAAAGUGCAGGGGGCGG [A22C G39C], the self-cleavage stood at 0.161.

AACACCGCCAAUGCCGGUCCCAAGCCCGGAUAAAAGUGGAGGGGGCCG [U6C G47C]: the self-cleavage was determined as 0.209.

As to AACACUGCCAAUGCCGGUCCCAGGCCCGGUUAAAAGUGGAGGGGGCGG [A23G A30U], the self-cleavage came out at 0.587.

Consider ACCACUGCCAAUGCCGGUCCCAAGCACGGAUAAAAGUGGAGGGGGCGG [A2C C26A], for which the self-cleavage amounted to 0.0536.

As for AACACUGCCAUUGCCGGUCCCAAGCCCGGAUAAAAGUGGAGGGGGCCG [A11U G47C], the self-cleavage was 0.624.

Turning to AACACUGCCAAUGCCGGUCCCAAGCCUGGAUAAAAGUGGAGGCGGCGG [C27U G43C], the self-cleavage was 0.135.

Consider AACACUGCCAAUGCCGGUCCCAAGCCCGCAUAAAAGUGGAGGGGGUGG [G29C C46U], for which the self-cleavage stood at 0.769.

For the variant AACACUGCCAAUGCCGGUCCCAAGCCCAGAUAAUAGUGGAGGGGGCGG [G28A A34U], the self-cleavage was found to be 0.497.

For the variant AACACUGCCUAUGCCGGUCCCAAGCCCGGAUAAAUGUGGAGGGGGCGG [A10U A35U], the self-cleavage turned out to be 0.89.

Consider AACACUGCCAAUGCCGGUCCCAAGCGCGGAUAGAAGUGGAGGGGGCGG [C26G A33G], for which the self-cleavage came to 0.154.

On to AACACAGACAAUGCCGGUCCCAAGCCCGGAUAAAAGUGGAGGGGGCGG [U6A C8A], for which the self-cleavage is 0.104.

For the variant AACACUUGCAAUGCCGGUCCCAAGCCCGGAUAAAAGUGGAGGGGGCGG [G7U C8G], the self-cleavage was found to be 0.114.

Take AACACUGCCAAUGCAGGUCCCAAGCCCGGAUAAAAAUGGAGGGGGCGG [C15A G36A]: the self-cleavage was found to be 0.165.

AACACUGCAAAUGCAGGUCCCAAGCCCGGAUAAAAGUGGAGGGGGCGG [C9A C15A]: the self-cleavage was 0.35.

On to AACACUGCCAAUGCAGGUCCCAAGCCCGGAUAGAAGUGGAGGGGGCGG [C15A A33G], for which the self-cleavage is 0.578.

Turning to AACACUGCGAAUGCCGGUCCCAAGCCCGGCUAAAAGUGGAGGGGGCGG [C9G A30C], the self-cleavage was found to be 0.649.

Take AACACUGCCAAUGUCGGUCCCAAGCCGGGAUAAAAGUGGAGGGGGCGG [C14U C27G]: the self-cleavage stood at 0.108.

Turning to AACACUGCCAAUGCCGGUCCCAAGCCCCGAUAAACGUGGAGGGGGCGG [G28C A35C], the self-cleavage amounted to 0.912.

Consider AAAACUGCCAAUGCCGGUCCCAAGCCCGGAUAUAAGUGGAGGGGGCGG [C3A A33U], for which the self-cleavage came to 0.203.

In the case of AACACUGCCAAUGCCGGUCCCGAGCCCGGAUAAAGGUGGAGGGGGCGG [A22G A35G], the self-cleavage worked out at 0.138.

In the case of AACACUGCCAAGGCAGGUCCCAAGCCCGGAUAAAAGUGGAGGGGGCGG [U12G C15A], the self-cleavage was 0.614.

On to UACACUGCCAAUGCCGGUCCCAAGCCCGGAUAAAAGUGGAAGGGGCGG [A1U G41A], for which the self-cleavage was determined as 0.0475.

As to AAGACUGCCAAUGCCGGUUCCAAGCCCGGAUAAAAGUGGAGGGGGCGG [C3G C19U], the self-cleavage was 0.265.

With AACACUGACAAUGCCGGUCCCAAGCCCGGAUAAAAGGGGAGGGGGCGG [C8A U37G], the self-cleavage was 0.3.

As to AACACUGCCAAUGCCGGUCCCAAGCCCGGAUAAAAGUGGCGGGCGCGG [A40C G44C], the self-cleavage came out at 0.226.

As for AACACUGCCAAUGCCGGUCCCAACCCCGGAUAAAAGUGGAGGGGGGGG [G24C C46G], the self-cleavage was 0.105.

AACACUGCCAAUUCCGGUCCCAAGCCCGGAUAAAAGUGGAUGGGGCGG [G13U G41U]: the self-cleavage came out at 0.104.

As for AACACUGCUGAUGCCGGUCCCAAGCCCGGAUAAAAGUGGAGGGGGCGG [C9U A10G], the self-cleavage amounted to 0.872.

As to AACACUGCCAAUGCUGGUCCCAUGCCCGGAUAAAAGUGGAGGGGGCGG [C15U A23U], the self-cleavage came to 0.291.

As for AACACUGCGAAUGCCGGUCCCAAGCCUGGAUAAAAGUGGAGGGGGCGG [C9G C27U], the self-cleavage came to 0.326.

For the variant AAAACUGCCAAUGCCGGUCCCAAGCCCGGAUAAAAGUGGAUGGGGCGG [C3A G41U], the self-cleavage was 0.0613.

In the case of AACACUGCCAAUGCCGGUCCCAAGCCCGGAUAUAAGUGGAGGUGGCGG [A33U G43U], the self-cleavage is 0.421.

For AACACUGCCAAUGCCGGUCCCAAGCCCGGAUAAUAGUGGAGGGAGCGG [A34U G44A], the self-cleavage worked out at 0.893.

For the variant CACACUGCCAAUGCCGGUCCCAAGCCCGGAUAAAAGUGGAGGGGGGGG [A1C C46G], the self-cleavage stood at 0.181.

Take AACACUGCCAAUGCCUGUCCUAAGCCCGGAUAAAAGUGGAGGGGGCGG [G16U C21U]: the self-cleavage is 0.105.

AACACUGCCGAUGCCGGUCCCAGGCCCGGAUAAAAGUGGAGGGGGCGG [A10G A23G]: the self-cleavage came to 0.879.
